Test results reported in article PMC7195849 (Science signaling, 2019).
Ends that are not written are not given here. * marks the point of attachment. Biotin = O=C1N[C@H]2[C@H](CS[C@H]2CCCCC(=O)*)N1

T1: GST-PKCθ-C2^WT (GST fusion of the C2 domain of human PKCθ, aa 1–144) (human, UniProt Q04759 1-144)
T1 sequence (looked up): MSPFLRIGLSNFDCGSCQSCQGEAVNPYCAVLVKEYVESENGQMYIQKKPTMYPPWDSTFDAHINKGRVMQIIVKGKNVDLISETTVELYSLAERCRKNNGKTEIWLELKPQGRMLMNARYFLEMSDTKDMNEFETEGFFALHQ


How the values were obtained:
PKCθ C2 domain, 1-144 = PKCθ C2 domain, 1-144 (UniProt Q04759); assay: ELISA, immobilized biotin-peptide, soluble GST-C2; settings: reference: unphosphorylated Y126 peptide; sites Y126
[1] = biological target: T1, GST-PKCθ-C2^WT (GST fusion of the C2 …); assay: ELISA

Molecule	binding against the reference (PKCθ C2 domain, 1-144)	binding result [1]
Zap70 (from UniProt P43403) pY126 peptide	stronger	
Biotin-AMVRDYVRQTWK [Zap70 peptide Y126 (non-phosphorylated), N-terminally biotinylated]		binds
